One assay has as its target human CGRP receptor (human, UniProt Q16602 23-461; O60894 27-148). The experiment in a line: cell-based or functional assay.
Another assay deals with T1, human PAC1 receptor (human, UniProt P41586 24-468).
T1 sequence: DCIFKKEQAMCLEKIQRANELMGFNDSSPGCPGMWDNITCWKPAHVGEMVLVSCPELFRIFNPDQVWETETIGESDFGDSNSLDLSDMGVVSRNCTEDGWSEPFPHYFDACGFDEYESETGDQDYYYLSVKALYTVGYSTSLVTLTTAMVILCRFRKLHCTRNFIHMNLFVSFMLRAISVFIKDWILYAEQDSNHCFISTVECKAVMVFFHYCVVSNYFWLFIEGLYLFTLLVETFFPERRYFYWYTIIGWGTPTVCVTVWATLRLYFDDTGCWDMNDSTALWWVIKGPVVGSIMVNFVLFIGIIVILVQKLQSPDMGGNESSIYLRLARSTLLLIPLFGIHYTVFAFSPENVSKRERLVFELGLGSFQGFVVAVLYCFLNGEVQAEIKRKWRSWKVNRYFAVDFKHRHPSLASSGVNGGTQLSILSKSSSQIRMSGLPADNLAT
In words: cell-based or functional assay.

Chain of human CGRP receptor (Q16602 23-461 limits assumed, chain 1 of 2): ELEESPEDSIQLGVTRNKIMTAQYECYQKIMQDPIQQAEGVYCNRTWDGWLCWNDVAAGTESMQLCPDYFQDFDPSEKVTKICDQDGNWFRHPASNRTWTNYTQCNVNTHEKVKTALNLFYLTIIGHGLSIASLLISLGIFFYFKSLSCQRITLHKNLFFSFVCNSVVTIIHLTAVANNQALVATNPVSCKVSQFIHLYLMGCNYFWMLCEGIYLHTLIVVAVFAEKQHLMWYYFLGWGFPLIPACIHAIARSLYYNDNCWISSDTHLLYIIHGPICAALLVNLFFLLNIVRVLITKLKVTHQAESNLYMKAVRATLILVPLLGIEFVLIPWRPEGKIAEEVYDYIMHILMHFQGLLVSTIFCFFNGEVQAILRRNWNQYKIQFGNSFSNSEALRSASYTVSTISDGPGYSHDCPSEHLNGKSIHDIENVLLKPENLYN
Chain of human CGRP receptor (O60894 27-148 limits assumed, chain 2 of 2): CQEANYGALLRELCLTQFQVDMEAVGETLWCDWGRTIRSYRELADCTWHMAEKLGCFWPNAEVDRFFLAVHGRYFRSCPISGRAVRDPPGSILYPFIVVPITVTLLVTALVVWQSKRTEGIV

B1: iPS:454897 (bispecific antibody, human IgG1, kappa, lambda, N297G)
light 1: QSVLTQPPSVSAAPGQKVTISCSGSSSNIGNNYVSWYQQLPGTAPKLLIYDNNKRPSGIPDRFSGSKSGTSTTLGITGLQTGDEADYYCGTWDSRLSAVVFGGGTKLTVLGQPKAAPSVTLFPPSSEELQANKATLVCLISDFYPGAVTVAWKADSSPVKAGVETTTPSKQSNNKYAAKSYLSLTPEQWKSHRSYSCQVTHEGSTVEKTVAPTECS
heavy 1: QVQLVESGGGVVQPGRSLRLSCAASGFTFSSFGMHWVRQAPGKGLEWVAVISFDGSIKYSVDSVKGRFTISRDNSKNTLFLQMNSLRAEDTAVYYCARDRLNYYRSFGYYGYHYYGMAVWGQGTTVTVSSASTKGPSVFPLAPSSKSTSGGTAALGCLVKDYFPEPVTVSWNSGALTSGVHTFPAVLQSSGLYSLESVVTVPSSSLGTQTYICNVNHKPSNTKVDKKVEPKSCDKTHTCPPCPAPELLGGPSVFLFPPKPKDTLMISRTPEVTCVVVDVSHEDPEVKFNWYVDGVEVHNAKTKPCEEQYGSTYRCVSVLTVLHQDWLNGKEYKCKVSNKALPAPIEKTISKAKGQPREPQVYTLPPSRKKMTKNQVSLTCLVKGFYPSDIAVEWESNGQPENNYKTTPPVLKSDGSFFLYSKLTVDKSRWQQGNVFSCSVMHEALHNHYTQKSLSLSPGK
light 2: EIVLTQSPATLSLSPGERATLSCRASKSVGRSLHWYQQKPGQAPRLLIKYASQSLSGIPARFSGSGSGTDFTLTISSLEPEDFAVYYCHQSSRLPFTFGPGTKVDIKRTVAAPSVFIFPPSDEQLKSGTASVVCLLNNFYPREAKVQWKVDNALQSGNSQESVTEQDSKDSTYSLESTLTLSKADYEKHKVYACEVTHQGLSSPVTKSFNRGEC
heavy 2: not shown
Broadly, the IC50 is the point on the concentration scale where inhibition reaches its midpoint. Higher therefore signals a need for much substance. Regarding B1, in the assay with human CGRP receptor, the “Fold-improvement over 4E4 Ab” value was determined as 0.5 fold and the “IC50” value was determined as 1.14 nM. Moreover, in the assay with human PAC1 receptor, the “Fold-improvement over 29G4v22 Ab” value worked out at 6.2 fold and it took 1.04 nM to reach half-maximal inhibition (IC50).

B2: iPS:454903 (bispecific antibody, human IgG1, kappa, lambda, N297G)
light 1: QSVLTQPPSVSAAPGQKVTISCSGSSSNIGNNYVSWYQQLPGTAPKLLIYDNNKRPSGIPDRFSGSKSGTSTTLGITGLQTGDEADYYCGTWDSRLSAVVFGGGTKLTVLGQPKAAPSVTLFPPSSEELQANKATLVCLISDFYPGAVTVAWKADSSPVKAGVETTTPSKQSNNKYAAKSYLSLTPEQWKSHRSYSCQVTHEGSTVEKTVAPTECS
heavy 1: QVQLVESGGGVVQPGRSLRLSCAASGFTFSSFGMHWVRQAPGKGLEWVAVISFDGSIKYSVDSVKGRFTISRDNSKNTLFLQMNSLRAEDTAVYYCARDRLNYYRSFGYYGYHYYGMAVWGQGTTVTVSSASTKGPSVFPLAPSSKSTSGGTAALGCLVKDYFPEPVTVSWNSGALTSGVHTFPAVLQSSGLYSLESVVTVPSSSLGTQTYICNVNHKPSNTKVDKKVEPKSCDKTHTCPPCPAPELLGGPSVFLFPPKPKDTLMISRTPEVTCVVVDVSHEDPEVKFNWYVDGVEVHNAKTKPCEEQYGSTYRCVSVLTVLHQDWLNGKEYKCKVSNKALPAPIEKTISKAKGQPREPQVYTLPPSRKKMTKNQVSLTCLVKGFYPSDIAVEWESNGQPENNYKTTPPVLKSDGSFFLYSKLTVDKSRWQQGNVFSCSVMHEALHNHYTQKSLSLSPGK
light 2: EIVLTQSPATLSLSPGERATLSCRASKSVGWSLHWYQQKPGQAPRLLIKYASQSLSGIPARFSGSGSGTDFTLTISSLEPEDFAVYYCHQSSRLPFTFGPGTKVDIKRTVAAPSVFIFPPSDEQLKSGTASVVCLLNNFYPREAKVQWKVDNALQSGNSQESVTEQDSKDSTYSLESTLTLSKADYEKHKVYACEVTHQGLSSPVTKSFNRGEC
heavy 2: not shown
Turning to B2, in the assay with human CGRP receptor, the “Fold-improvement over 4E4 Ab” value came to 0.5 fold and the midpoint of inhibition, the IC50, lay at 1.16 nM. Besides, in the assay with human PAC1 receptor, the “Fold-improvement over 29G4v22 Ab” value turned out to be 10.2 fold and the “IC50” value was 0.72 nM.

B3: iPS:454901 (bispecific antibody, human IgG1, kappa, lambda, N297G)
light 1: QSVLTQPPSVSAAPGQKVTISCSGSSSNIGNNYVSWYQQLPGTAPKLLIYDNNKRPSGIPDRFSGSKSGTSTTLGITGLQTGDEADYYCGTWDSRLSAVVFGGGTKLTVLGQPKAAPSVTLFPPSSEELQANKATLVCLISDFYPGAVTVAWKADSSPVKAGVETTTPSKQSNNKYAAKSYLSLTPEQWKSHRSYSCQVTHEGSTVEKTVAPTECS
heavy 1: QVQLVESGGGVVQPGRSLRLSCAASGFTFSSFGMHWVRQAPGKGLEWVAVISFDGSIKYSVDSVKGRFTISRDNSKNTLFLQMNSLRAEDTAVYYCARDRLNYYRSFGYYGYHYYGMAVWGQGTTVTVSSASTKGPSVFPLAPSSKSTSGGTAALGCLVKDYFPEPVTVSWNSGALTSGVHTFPAVLQSSGLYSLESVVTVPSSSLGTQTYICNVNHKPSNTKVDKKVEPKSCDKTHTCPPCPAPELLGGPSVFLFPPKPKDTLMISRTPEVTCVVVDVSHEDPEVKFNWYVDGVEVHNAKTKPCEEQYGSTYRCVSVLTVLHQDWLNGKEYKCKVSNKALPAPIEKTISKAKGQPREPQVYTLPPSRKKMTKNQVSLTCLVKGFYPSDIAVEWESNGQPENNYKTTPPVLKSDGSFFLYSKLTVDKSRWQQGNVFSCSVMHEALHNHYTQKSLSLSPGK
light 2: EIVLTQSPATLSLSPGERATLSCRASKAVGWSLHWYQQKPGQAPRLLIKYASQSLSGIPARFSGSGSGTDFTLTISSLEPEDFAVYYCHQSSRLPFTFGPGTKVDIKRTVAAPSVFIFPPSDEQLKSGTASVVCLLNNFYPREAKVQWKVDNALQSGNSQESVTEQDSKDSTYSLESTLTLSKADYEKHKVYACEVTHQGLSSPVTKSFNRGEC
heavy 2: not shown
Turning to B3, in the assay with human CGRP receptor, the “Fold-improvement over 4E4 Ab” value is 0.6 fold and half-maximal inhibition (IC50) required 1.01 nM. For the same molecule, in the assay with human PAC1 receptor, the “Fold-improvement over 29G4v22 Ab” value came to 10.9 fold and the “IC50” value amounted to 0.67 nM.

B4: iPS:454899 (bispecific antibody, human IgG1, kappa, lambda, N297G)
light 1: QSVLTQPPSVSAAPGQKVTISCSGSSSNIGNNYVSWYQQLPGTAPKLLIYDNNKRPSGIPDRFSGSKSGTSTTLGITGLQTGDEADYYCGTWDSRLSAVVFGGGTKLTVLGQPKAAPSVTLFPPSSEELQANKATLVCLISDFYPGAVTVAWKADSSPVKAGVETTTPSKQSNNKYAAKSYLSLTPEQWKSHRSYSCQVTHEGSTVEKTVAPTECS
heavy 1: QVQLVESGGGVVQPGRSLRLSCAASGFTFSSFGMHWVRQAPGKGLEWVAVISFDGSIKYSVDSVKGRFTISRDNSKNTLFLQMNSLRAEDTAVYYCARDRLNYYRSFGYYGYHYYGMAVWGQGTTVTVSSASTKGPSVFPLAPSSKSTSGGTAALGCLVKDYFPEPVTVSWNSGALTSGVHTFPAVLQSSGLYSLESVVTVPSSSLGTQTYICNVNHKPSNTKVDKKVEPKSCDKTHTCPPCPAPELLGGPSVFLFPPKPKDTLMISRTPEVTCVVVDVSHEDPEVKFNWYVDGVEVHNAKTKPCEEQYGSTYRCVSVLTVLHQDWLNGKEYKCKVSNKALPAPIEKTISKAKGQPREPQVYTLPPSRKKMTKNQVSLTCLVKGFYPSDIAVEWESNGQPENNYKTTPPVLKSDGSFFLYSKLTVDKSRWQQGNVFSCSVMHEALHNHYTQKSLSLSPGK
light 2: EIVLTQSPATLSLSPGERATLSCRASKSVGRSLHWYQQKPGQAPRLLIKYASQSLSGIPARFSGSGSGTDFTLTISSLEPEDFAVYYCHQSSRLPFTFGPGTKVDIKRTVAAPSVFIFPPSDEQLKSGTASVVCLLNNFYPREAKVQWKVDNALQSGNSQESVTEQDSKDSTYSLESTLTLSKADYEKHKVYACEVTHQGLSSPVTKSFNRGEC
heavy 2: not shown
With B4, in the assay with human CGRP receptor, the “Fold-improvement over 4E4 Ab” value was 0.6 fold and the “IC50” value was found to be 1.04 nM. Moreover, in the assay with human PAC1 receptor, the “Fold-improvement over 29G4v22 Ab” value is 5.2 fold and inhibition was half-maximal at 1.41 nM (IC50).

B5: iPS:454905 (bispecific antibody, human IgG1, kappa, lambda, N297G)
light 1: QSVLTQPPSVSAAPGQKVTISCSGSSSNIGNNYVSWYQQLPGTAPKLLIYDNNKRPSGIPDRFSGSKSGTSTTLGITGLQTGDEADYYCGTWDSRLSAVVFGGGTKLTVLGQPKAAPSVTLFPPSSEELQANKATLVCLISDFYPGAVTVAWKADSSPVKAGVETTTPSKQSNNKYAAKSYLSLTPEQWKSHRSYSCQVTHEGSTVEKTVAPTECS
heavy 1: QVQLVESGGGVVQPGRSLRLSCAASGFTFSSFGMHWVRQAPGKGLEWVAVISFDGSIKYSVDSVKGRFTISRDNSKNTLFLQMNSLRAEDTAVYYCARDRLNYYRSFGYYGYHYYGMAVWGQGTTVTVSSASTKGPSVFPLAPSSKSTSGGTAALGCLVKDYFPEPVTVSWNSGALTSGVHTFPAVLQSSGLYSLESVVTVPSSSLGTQTYICNVNHKPSNTKVDKKVEPKSCDKTHTCPPCPAPELLGGPSVFLFPPKPKDTLMISRTPEVTCVVVDVSHEDPEVKFNWYVDGVEVHNAKTKPCEEQYGSTYRCVSVLTVLHQDWLNGKEYKCKVSNKALPAPIEKTISKAKGQPREPQVYTLPPSRKKMTKNQVSLTCLVKGFYPSDIAVEWESNGQPENNYKTTPPVLKSDGSFFLYSKLTVDKSRWQQGNVFSCSVMHEALHNHYTQKSLSLSPGK
light 2: EIVLTQSPATLSLSPGERATLSCRASKSVGWSLHWYQQKPGQAPRLLIKYASQSLSGIPARFSGSGSGTDFTLTISSLEPEDFAVYYCHQSSRLPFTFGPGTKVDIKRTVAAPSVFIFPPSDEQLKSGTASVVCLLNNFYPREAKVQWKVDNALQSGNSQESVTEQDSKDSTYSLESTLTLSKADYEKHKVYACEVTHQGLSSPVTKSFNRGEC
heavy 2: not shown
For B5, in the assay with human CGRP receptor, the “Fold-improvement over 4E4 Ab” value amounted to 0.5 fold and the “IC50” value worked out at 1.13 nM. Besides, in the assay with human PAC1 receptor, the “Fold-improvement over 29G4v22 Ab” value was 9.2 fold and the “IC50” value came to 0.79 nM.

Values taken from US20220363770A1 (Amgen, published 2022).
